Test: soluble fraction after stress (log2 fold change); higher = more stays soluble; pooled small domains, quantitative proteomics
Details: stress: 75 degC
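Further: 20 min heating vs room temperature control held 20 min.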

HMGEELIEIQNLRNKERREAEAILKNLDLVPVIQEQFDDTVPINRVITTDPGPDSTVKKGTTVMIYVSKGP
soluble fraction (log2): 0.415

HMGEENLKYPLLTDGSVKTTVLEAIDKDEKWLREELAKQGYDDLSKLFLVDYLGGQLVVTPY
soluble fraction (log2): 0.144

HMGEESIAELISNPKLSDAKRTVILDLLSRGLTVDQIKPYIQSDDPYTAEQLQFELYKLFFTQI
soluble fraction (log2): -0.578

HMGEGRVRLAQEAANRFMTAMAGDRPGFEEAGRALFAGDRARFHAETEGWPEDIRDHARRLAEPALQ
soluble fraction (log2): 0.144

HMGEIILVPDVKAQGVSDARYTLNQAGLDAVIADSSYNRNSPPGAVLEQMPAPGSKVKSGHAIYLIINTT
soluble fraction (log2): 0.138

HMGELTSILVATKQIEPGETLSSSNTQVKSWISDLIPEGAITNPESVMGRTVSSVIGVGMPVVSLHLR
soluble fraction (log2): 0.462

HMGELVIPPLRERTVVDAVAEAERLGFVVQVEPVASSLPEGRVLGQSPEPGTRARKSQVVVLQVSRG
soluble fraction (log2): -0.614

HMGEPLTVVAAAGGDRLDRWLAGQLAGRSRAEIQRWIEAGQVTLAGRSLKASYRLSAGDAIDVAIPPPE
soluble fraction (log2): -0.366

HMGEPVEIEEPITVRSLSEALGLKSSAIISHLMRQGVFATINQNLDKETAELIAAEYGIELRIK
soluble fraction (log2): -0.0834

HMGETDDDFRELEEFVEKTKFDKLGTFMYSKEEGTPAARLPEQIHGNTKKSRYNKIMSIQQKVSNEN
soluble fraction (log2): 0.253

HMGETPEILRDWEAAQNAVNDMLSKYAPGGYMGKIIYPLLTPLKERLEAGERTPDLYNAIVEAT
soluble fraction (log2): 0.119

HMGETYTIPDVRGYTLEDAMELPEIKENGFTIIEGRQIVDADVPVGQIISQTPEAESIAKSNVKEITVNIS
soluble fraction (log2): 0.239

HMGEVPVETKDGIKVHVHTVDKSQTAYGISRLYNITLNELYESNPEAKLELSIGQKLYFPVK
soluble fraction (log2): -0.199

HMGEVVRAPMPGNVLKMEVAQGQEVEEGDLLLVLEAMKMENDIVAPKGGIVIQLVVDKGMVVETDDPLVVI
soluble fraction (log2): -0.339

HMGEWNSVFSVPSSVVDKHLKTASSVYVKVLLVILRNAGNRISDQQISEQLSVPVDEVQEAIRYWNAAGIF
soluble fraction (log2): -2.76

HMGFAANLSRLMEYHNISMYRLAKEVGVHQTTVKNWLEEESEPKIAALEKIVGLLGVSYDELLG
soluble fraction (log2): -4.58

HMGFLTGNTQGEVNRKTKNQMVNIFLPTTPNPTSGFLLFVPKKDILRLTMTVEEGIKMIISAGMLTPS
soluble fraction (log2): -0.527

HMGFTDREREIIRNDLVATGRELFGTFGLKKTSIEDLTKAVGIAQGSFYTFFNSKEELYLEVMDREGEA
soluble fraction (log2): -1.14

HMGGALSPDFGWLAMIDPDEGRAITLYDIASGEAIAVLDTHEARVAALAWSPDGTRLASGDQNGLIVQWEI
soluble fraction (log2): -0.31

HMGGEEPYGSGSLRLAAGAVVPSGYTIKGNEDSMLYHTTESPWYKQTIAEVWFNAESAAQRAGFTRWDAKD
soluble fraction (log2): -0.137

HMGGEIGSGKNGYVAFYKGKKVDVKADSMYGAQKTAAKYFNAKKEYDVNVVLAEVDGKQYVQS
soluble fraction (log2): 0.547

HMGGGVERLTPRQREVLGYMAEGRSNSWIAGAIGFSEKAVVQHTSKIYDALGLAVDADDHRRVLAVLRYLT
soluble fraction (log2): -1.44

HMGGKWKLRILWHIHHGDTRFSTLKRGIPEISEKILAQQLRELEEHQLIKRRVVTVMPPHVVYEL
soluble fraction (log2): -2.37

HMGGLAEIILNAIEIEGGFLPITDKSAPELIQSRLGMSKKAFKEAVGTLYKNRDIAIEPNGLRKI
soluble fraction (log2): -0.452

HMGGLALAEREVVEWLSQRNLLPSPDVVARAAAHPDGLGWLERSLAVLEGPRLFLGLGDLVPEP
soluble fraction (log2): -0.688

HMGGLAVQLVHAMTDQIRSGRLKAGDKLPTEAAIMKDFGVSRTVVREAISRLQASGWVDTRHGIGTFVLHQ
soluble fraction (log2): -2.1

HMGGLIEPLSARELEVLELMSLGKTNQEIARDLVVASGTIKAHAASIYRKLDAANRTEAVTHARELGIL
soluble fraction (log2): 0.471

HMGGPEVLELEDVKVGSPGPDEIKVTNHAIGLNYIDTYHRSGLYPLKLPSGIGLEAAGKVEEIGSNV
soluble fraction (log2): 0.00701

HMGGQEEALNRLVLRELLGTLEKKERDLIVRRYFYDQTQTKIAEALGISQVQVSRMEKRILKKMREGF
soluble fraction (log2): -0.98

HMGGRSARVRRAVLDAVVELLGEGGVRAVTIAEVAKRSGVNASSIYRRWRSIDALILDAAQDL
soluble fraction (log2): -2.51

HMGGSDIYLGAFNIPQGSVRVTSGGQALTEGKDFTIDYNLGSVKIINQAILNSGIPVSVSYENNAG
soluble fraction (log2): 0.0185

HMGGSLADAKRFLADLLADGPVPAKGVRADADGAGHTWPTIRRAQKALGIEATKTGMKGGWVWALPR
soluble fraction (log2): -0.165

HMGGSVYTVQKGDTLWSIAKEQLGSPLRYAEIYDLNKDVIEEAARGRGKKDSSNGHWLVVGTSLQIPEAT
soluble fraction (log2): 0.184

HMGGTAGKINAIGVNFRTGPSTSYTSLGLLGKDTAVTVIGTSGKWYKVTIVSTGKTGYVYATYVNLTP
soluble fraction (log2): -2.25

HMGGVIEDDRGQWAHPGEVTKINSNNITMKGVDFPVLGISDTGDKKMMQPGKDYKFDGNSVTEYPMA
soluble fraction (log2): -0.24

HMGGWEEGVYVVREGDTLSDIVHDAVKGTEIHPDFILNAIVRVNPSAFVRGNPSWMLAGKKIK
soluble fraction (log2): -0.0613

HMGGYVTGTIDLTKFGYAFVITEESEDDVFVAARNLNTALHGDQVKVLLYARHKGKRPEGEVVEIISRSRA
soluble fraction (log2): -2.35

HMGHEEPITFDRLPQAAQTFLKTHFDTLTVAYIVADRKFMGVEYEVKYTDRTEVDFRSDGQWESV
soluble fraction (log2): 0.085

HMGHKTLTVELQEKIENLPQTLDKYNLTLGNNKMSVDYTYSVKEKQTGITNLLQDLKEHKFDIVYLVGQDN
soluble fraction (log2): 0.343

HMGHLSNENAGRLLDRVLNDKIHAIMLGHLSKENNMPELAHEAVRMEITMGESRYKADDFPIYVA
soluble fraction (log2): -0.0465

HMGHTKLVVDIVEELKLEQGALLPILHAIQDELGYVPTKSVPFIADSLNLSRAEVHGVISFYHYFR
soluble fraction (log2): 0.153

HMGIAWGMLREQVAASDVSYRSEVLDILDRTPVWIYDAEGKIVDGRKKRLMDLQGGEPYRHMLEHFFPDLR
soluble fraction (log2): -2.43

HMGIDAIDNFVSKIIMKIEGLGESEVPTSTIGKFIMEGLQYLDTVAYVRYASVYKNFKEAKDFEQFVGSL
soluble fraction (log2): -0.0349

HMGIDRPLFTLAQFARQIGEQVKISLSLPQDGRRRLQGKVLSVGESGIVLDVDGREFTVAIGNVDKARL
soluble fraction (log2): -1.83

HMGIDSSVYVEARYELGHLYLKQKKYAAAYASFKEILDMYASTTPGVLPGAYNKLAEIGMKRIPKNKL
soluble fraction (log2): -2.66

HMGIIQAQIPGLVSRLFVKKGDKVAVNQRLFILEAMKMENEIDSPIQGMVEKIHITTGSKVEKGDLIMEIV
soluble fraction (log2): -2.9

HMGIIYGKNPVLEAISSGTTINKIYAQTSNKEIDSVIKEALKRKIIVVNTDKQKLDKMIDGKNSQGIIASI
soluble fraction (log2): 0.025

HMGIKAADIVTNDIQFNTQAQFDKYKDLYPTLGWGNYDPNKTYTMQGFKNKLKPNELFTGTPNLKIEDT
soluble fraction (log2): 0.486

HMGIKDRIVYIMEKEKLSIPLFAKKIGIGPSTLLHIIRGKNAPSLQVVQAIHKAYPDIDLNWLI
soluble fraction (log2): -1.66

HMGIKSSASLQEAAEKAQSAYYDIEHSGVATAVDIQRAWVAMVAAQIDAGEKLDSGTITLYERLKTST
soluble fraction (log2): 0.0117

HMGIMNFDTWLKSLPGTPTPTIAAKKSGLAAPTLLRHVERGYSTADNVIAIAKAYGVSPIDALVDNGML
soluble fraction (log2): -0.956

HMGIMSEITHRVLRLLGLLESRSTWTGSDLAERLGVTQRTIRRDVIRLRELGYQVDSVQGLDGGYRMS
soluble fraction (log2): -2.65

HMGIPVSIGQLDFNQARGNLALQVRASDFAALEQLRQRLGQTGESVQLGSASRDGDAVSARVVIGGQ
soluble fraction (log2): 0.0963

HMGIQQNHMTLHARSVASSANVPAEHFDTLVEKLIESGDIKVWKAREILMNLSRQHEEILDES
soluble fraction (log2): -0.789

HMGISGSDLEKMIRNILVNNTDVVETIKSGQDKKGKKQKFLQGLIMKEARGQTDPREAASLLAKLLE
soluble fraction (log2): -0.108

HMGITMFGQNLKKLRTSKNLSQSKLSKILGISSSTIGMYEQGRRFPDQTILTKIADFFDVSTDYLLGR
soluble fraction (log2): -0.819

HMGIVAQLPTIRVNGKTLYYYDAQSGDNIYSIAEKLGVTVEDIRANNPGVADGVKPRMRLFFPTSLAK
soluble fraction (log2): -0.377

HMGIVYGVIKENWDQDHPGMVKVEILQGESGKNVSDWIPVMSPYAGKEFGAYALPEIGTQAVVAFE
soluble fraction (log2): 0.24

HMGIYDQAAAAYIEFVESKNRAPKWNELIDALYKENGKDWIDRSTLHGLLRRKEFQELLAQKRKEHLV
soluble fraction (log2): -0.76

HMGIYFIIAAKNQENNIEEFIRTTLFRIVYGKEESINNITLVDLKSKDNTKNIMEEIARENENVKV
soluble fraction (log2): -0.641

HMGKAPREVQVGELLRVPALNAEGEVLRRDGESVELSIQGKKLRLPLAQLEAFSPRRFARRGEGKVRGRIE
soluble fraction (log2): 0.591

HMGKDLLGYEVFAESGDLVGILKDVMWLPHSDVYVITKGGKEFLIPVIPEVVKGINHEQGVIVISPMEGLL
soluble fraction (log2): -0.234

HMGKDTLKLKKNAIPYDENGKKLTNLGYSYIKKTTVLNYYGTKIINGSTYYFLGDGVYIKAANVGTTSH
soluble fraction (log2): -2.56

HMGKEYERALQQVTKSEIDSDEKLQQQMDALVNSPRISDKEDAWALLLVKKLRNEGVEWDELPDVLSERVQ
soluble fraction (log2): 0.159

HMGKGGVAYLLESEFGIELPKDMQREFGPIANDIVDSLGREVSGAELKSMFWKEYIERETPFLLLLVTGQL
soluble fraction (log2): 0.404

HMGKIFSELTPREIEVVRLIADGLSNQQIAEELFLSNGTVRNHISTILEKTGLEHRTQIAVMWLR
soluble fraction (log2): -0.139

HMGKKIVERRNTILNMVNKYGTLDFPQLRDAFPDVSDVTLRKDLQYLDSTKQAIRTHGGIKSI
soluble fraction (log2): -0.0604

HMGKLQFREKLNGILELGKEKHRVLTMEDVEKYFEEDALSEEQMELVYDYLLSQKIAVTGYVKK
soluble fraction (log2): -0.509

HMGKPPNNRIHRAKRDYALNLVKEHYPDFGPTLAAEKLAEHHGFTVSRETLRKWMIEDGIWLSRKQRR
soluble fraction (log2): -0.475

HMGKQIKEIVEEYYDSTSKNSPVGGSWKTSLDGVDLTSPNITIWTRTKIKYVDGSESIVTPQSL
soluble fraction (log2): -0.105

HMGKRPTIQMVAEMAGVSRGTVDRVLNGRSYVSAQVRQRVLAALQETGYISSREHHQQALQS
soluble fraction (log2): -0.691

HMGKRRGLKVAEEVFADRGYNPDGTLVNRSLPGAFVKDPDEAIARVIKMVKTKKVTAVNGEEIDIAADSI
soluble fraction (log2): -0.0957

HMGKSDEIFIQKSALYEELGQPDRALEMIYSALKSDSLNIDVLHRLVTLLINQNKNEDAILYNQKIID
soluble fraction (log2): -0.203

HMGKTEETLQMEKLVEALRRSGRMKYEDAYRIVYAAFPDAKDFEGMLSGAIRAGFIELQMGNDGAFLRAL
soluble fraction (log2): -0.859

HMGKVNGFEITVIEGKNVVGSITPRQAIAKNSDGVIQLRGEQSFSATDQVLINELAFYIKSNNLKA
soluble fraction (log2): -1.31

HMGLAALLQSGPVAGTVLSHQPGGKVVIAFQGQAYPLNLKGRTLQPGQSVLARMAGEQISLEVI
soluble fraction (log2): -1.14

HMGLDERNLKLFAASLLEQAGKKITESTMTYLLDKTGSDMENIQNEVEKIIGYTMNHTVVTTEDIDAV
soluble fraction (log2): 0.0873
